This is an account of results in article PMC8632965.

In test [1] the target is domain 1 of CD147 (human) (UniProt P35613). Briefly: SPR; Biacore T200; CD147ECD peptides diluted in 10 mM sodium acetate pH 4.5 and immobilised on a CM5 chip; purified proteins injected as analytes at 10 µL/min; BSA signal subtracted.
Test [2] has as its target extracellular portion of CD147 (ECD), amino acids 22–205 (human) (UniProt P35613). Described as above.

The Kd is the constant that tells how readily two partners part at equilibrium. A low value points to tighter binding. “extracellular portion of CD98 (212-630 of CD98hc) (domain or fragment)”: the Kd stood at 3.53 µM in test [1] and 431 nM in test [2].
